From the supplement of paper PMC5998384

How the values were obtained:
HeLa Kyoto [1] = assay: solubility in G1/S (NP-40 vs SDS abundance) (log2 ratio); higher = more soluble; details: cell cycle stage: G1/S
HeLa Kyoto [2] = assay: melting temperature (median over replicates), in situ; higher = more thermally stable
HeLa Kyoto [3] = assay: solubility change mitosis vs G1/S (difference of NP-40 vs SDS log2 ratios) (log2 ratio difference); higher = more soluble in mitosis
HeLa Kyoto [4] = assay: thermal stability score vs G1/S (z-score of summed log2 fold changes over temperatures); higher = more thermally stable than in G1/S
[5] = cell cycle stage: early G1 (4.5 h after nocodazole release)
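For melting temperature (median over replicates), in situ in this document: HeLa Kyoto cells synchronized by double thymidine or nocodazole block, proteins quantified by TMT10plex mass spectrometry, three independent biological replicates.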
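For solubility change mitosis vs G1/S (difference of NP-40 vs SDS log2 ratios) in this document: synchronized HeLa Kyoto cells (double thymidine block for G1/S, nocodazole release for mitosis), protein amounts in NP-40 versus SDS lysates quantified by mass spectrometry, three biological replicates.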
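For solubility in G1/S (NP-40 vs SDS abundance) in this document: HeLa Kyoto cells arrested at G1/S by double thymidine block, proteins quantified by TMT10plex mass spectrometry in mild NP-40 versus SDS extracts, three biological replicates.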
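For thermal stability score vs G1/S (z-score of summed log2 fold changes over temperatures) in this document: synchronized HeLa Kyoto cells, proteins quantified by TMT10plex mass spectrometry, three biological replicates, mitosis taken 0.5 h after nocodazole release, G1/S directly after double thymidine block.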

| Sequence | solubility in G1/S (log2) (HeLa Kyoto [1]) | melting temperature (HeLa Kyoto [2]; cell cycle stage: G1/S) [°C] | melting temperature (HeLa Kyoto [2]; cell cycle stage: mitosis) [°C] | solubility change mitosis (log2) (HeLa Kyoto [3]) | thermal stability score (HeLa Kyoto [4]; [5]) | thermal stability score (HeLa Kyoto [4]; cell cycle stage: mitosis) |
| --- | --- | --- | --- | --- | --- | --- |
| MSVLGEYERHCDSINSDFGSESGGCGDSSPGPSASQGPRAGGGAAEQEELHYIPIRVLGRGAFGEATLYRRTEDDSLVVWKEVDLTRLSEKERRDALNEIVILALLQHDNIIAYYNHFMDNTTLLIELEYCNGGNLYDKILRQKDKLFEEEMVVWYLFQIVSAVSCIHKAGILHRDIKTLNIFLTKANLIKLGDYGLAKKLNSEYSMAETLVGTPYYMSPELCQGVKYNFKSDIWAVGCVIFELLTLKRTFDATNPLNLCVKIVQGIRAMEVDSSQYSLELIQMVHSCLDQDPEQRPTADELLDRPLLRKRRREMEEKVTLLNAPTKRPRSSTVTEAPIAVVTSRTSEVYVWGGGKSTPQKLDVIKSGCSARQVCAGNTHFAVVTVEKELYTWVNMQGGTKLHGQLGHGDKASYRQPKHVEKLQGKAIRQVSCGDDFTVCVTDEGQLYAFGSDYYGCMGVDKVAGPEVLEPMQLNFFLSNPVEQVSCGDNHVVVLTRNKEVYSWGCGEYGRLGLDSEEDYYTPQKVDVPKALIIVAVQCGCDGTFLLTQSGKVLACGLNEFNKLGLNQCMSGIINHEAYHEVPYTTSFTLAKQLSFYKIRTIAPGKTHTAAIDERGRLLTFGCNKCGQLGVGNYKKRLGINLLGGPLGGKQVIRVSCGDEFTIAATDDNHIFAWGNGGNGRLAMTPTERPHGSDICTSWPRPIFGSLHHVPDLSCRGWHTILIVEKVLNSKTIRSNSSGLSIGTVFQSSSPGGGGGGGGGEEEDSQQESETPDPSGGFRGTMEADRGMEGLISPTEAMGNSNGASSSCPGWLRKELENAEFIPMPDSPSPLSAAFSESEKDTLPYEELQGLKVASEAPLEHKPQVEASSPRLNPAVTCAGKGTPLTPPACACSSLQVEVERLQGLVLKCLAEQQKLQQENLQIFTQLQKLNKKLEGGQQVGMHSKGTQTAKEEMEMDPKPDLDSDSWCLLGTDSCRPSL [NEK9] | -0.134 | 51 | 51.2 | -0.102 | 0.358 | -0.633 |
| MSVLLRSGLGPLCAVARAAIPFIWRGKYFSSGNEPAENPVTPMLRHLMYKIKSTGPITVAEYMKEVLTNPAKGYYVYRDMLGEKGDFITSPEISQIFGELLGIWFISEWMATGKSTAFQLVELGPGRGTLVGDILRVFTQLGSVLKNCDISVHLVEVSQKLSEIQALTLTKEKVPLERNAGSPVYMKGVTKSGIPISWYRDLHDVPKGYSFYLAHEFFDVLPVHKFQKTPQGWREVFVDIDPQVSDKLRFVLAPSATPAEAFIQHDETRDHVEVCPDAGVIIEELSQRIALTGGAALVADYGHDGTKTDTFRGFCDHKLHDVLIAPGTADLTADVDFSYLRRMAQGKVASLGPIKQHTFLKNMGIDVRLKVLLDKSNEPSVRQQLLQGYDMLMNPKKMGERFNFFALLPHQRLQGGRYQRNARQSKPFASVVAGFSELAWQ [NDUFAF7] | 0.278 | 49.2 | 49 | -0.162 | 0.103 | 1.08 |
| MSVNSEKSSSSERPEPQQKAPLVPPPPPPPPPPPPPLPDPTPPEPEEEILGSDDEEQEDPADYCKGGYHPVKIGDLFNGRYHVIRKLGWGHFSTVWLCWDMQGKRFVAMKVVKSAQHYTETALDEIKLLKCVRESDPSDPNKDMVVQLIDDFKISGMNGIHVCMVFEVLGHHLLKWIIKSNYQGLPVRCVKSIIRQVLQGLDYLHSKCKIIHTDIKPENILMCVDDAYVRRMAAEATEWQKAGAPPPSGSAVSTAPQQKPIGKISKNKKKKLKKKQKRQAELLEKRLQEIEELEREAERKIIEENITSAAPSNDQDGEYCPEVKLKTTGLEEAAEAETAKDNGEAEDQEEKEDAEKENIEKDEDDVDQELANIDPTWIESPKTNGHIENGPFSLEQQLDDEDDDEEDCPNPEEYNLDEPNAESDYTYSSSYEQFNGELPNGRHKIPESQFPEFSTSLFSGSLEPVACGSVLSEGSPLTEQEESSPSHDRSRTVSASSTGDLPKAKTRAADLLVNPLDPRNADKIRVKIADLGNACWVHKHFTEDIQTRQYRSIEVLIGAGYSTPADIWSTACMAFELATGDYLFEPHSGEDYSRDEDHIAHIIELLGSIPRHFALSGKYSREFFNRRGELRHITKLKPWSLFDVLVEKYGWPHEDAAQFTDFLIPMLEMVPEKRASAGECLRHPWLNS [SRPK2] | -0.405 | 53.3 | 52.2 | 0.0499 | -3.22 | -4.46 |
| MSVPSALMKQPPIQSTAGAVPVRNEKGEISMEKVKVKRYVSGKRPDYAPMESSDEEDEEFQFIKKAKEQEAEPEEQEEDSSSDPRLRRLQNRISEDVEERLARHRKIVEPEVVGESDSEVEGDAWRMEREDSSEEEEEEIDDEEIERRRGMMRQRAQERKNEEMEVMEVEDEGRSGEESESESEYEEYTDSEDEMEPRLKPVFIRKKDRVTVQEREAEALKQKELEQEAKRMAEERRKYTLKIVEEETKKELEENKRSLAALDALNTDDENDEEEYEAWKVRELKRIKRDREDREALEKEKAEIERMRNLTEEERRAELRANGKVITNKAVKGKYKFLQKYYHRGAFFMDEDEEVYKRDFSAPTLEDHFNKTILPKVMQVKNFGRSGRTKYTHLVDQDTTSFDSAWGQESAQNTKFFKQKAAGVRDVFERPSAKKRKTT [MFAP1] | -0.901 | 57.2 | 54.3 | 0.782 | -4 | -4.38 |
| MSVQVVSAAAAAKVPEVELKDLSPSEAESQLGLSTAAVGAMAPPAGGGDPEAPAPAAERPPVPGPGSGPAAALSPAAGKVPQASAMKRSDPHHQHQRHRDGGEALVSPDGTVTEAPRTVKKQIQFADQKQEFNKRPTKIGRRSLSRSISQSSTDSYSSAASYTDSSDDETSPRDKQQKNSKGSSDFCVKNIKQAEFGRREIEIAEQEMPALMALRKRAQGEKPLAGAKIVGCTHITAQTAVLMETLGALGAQCRWAACNIYSTLNEVAAALAESGFPVFAWKGESEDDFWWCIDRCVNVEGWQPNMILDDGGDLTHWIYKKYPNMFKKIKGIVEESVTGVHRLYQLSKAGKLCVPAMNVNDSVTKQKFDNLYCCRESILDGLKRTTDMMFGGKQVVVCGYGEVGKGCCAALKAMGSIVYVTEIDPICALQACMDGFRLVKLNEVIRQVDIVITCTGNKNVVTREHLDRMKNSCIVCNMGHSNTEIDVASLRTPELTWERVRSQVDHVIWPDGKRIVLLAEGRLLNLSCSTVPTFVLSITATTQALALIELYNAPEGRYKQDVYLLPKKMDEYVASLHLPTFDAHLTELTDEQAKYLGLNKNGPFKPNYYRY [AHCYL2] | -0.105 | 60.1 | 57.5 | -0.0168 | -1.59 | -3.95 |
| MSVVGIDLGFLNCYIAVARSGGIETIANEYSDRCTPACISLGSRTRAIGNAAKSQIVTNVRNTIHGFKKLHGRSFDDPIVQTERIRLPYELQKMPNGSAGVKVRYLEEERPFAIEQVTGMLLAKLKETSENALKKPVADCVISIPSFFTDAERRSVMAAAQVAGLNCLRLMNETTAVALAYGIYKQDLPPLDEKPRNVVFIDMGHSAYQVLVCAFNKGKLKVLATTFDPYLGGRNFDEALVDYFCDEFKTKYKINVKENSRALLRLYQECEKLKKLMSANASDLPLNIECFMNDLDVSSKMNRAQFEQLCASLLARVEPPLKAVMEQANLQREDISSIEIVGGATRIPAVKEQITKFFLKDISTTLNADEAVARGCALQCAILSPAFKVREFSITDLVPYSITLRWKTSFEDGSGECEVFCKNHPAPFSKVITFHKKEPFELEAFYTNLHEVPYPDARIGSFTIQNVFPQSDGDSSKVKVKVRVNIHGIFSVASASVIEKQNLEGDHSDAPMETETSFKNENKDNMDKMQVDQEEGHQKCHAEHTPEEEIDHTGAKTKSAVSDKQDRLNQTLKKGKVKSIDLPIQSSLCRQLGQDLLNSYIENEGKMIMQDKLEKERNDAKNAVEEYVYDFRDRLGTVYEKFITPEDLSKLSAVLEDTENWLYEDGEDQPKQVYVDKLQELKKYGQPIQMKYMEHEERPKALNDLGKKIQLVMKVIEAYRNKDERYDHLDPTEMEKVEKCISDAMSWLNSKMNAQNKLSLTQDPVVKVSEIVAKSKELDNFCNPIIYKPKPKAEVPEDKPKANSEHNGPMDGQSGTETKSDSTKDSSQHTKSSGEMEVD [HSPA4L] | 0.145 | 49.8 | 49.9 | -0.0487 | 1.4 | 1.87 |
| MSVVGIDLGFQSCYVAVARAGGIETIANEYSDRCTPACISFGPKNRSIGAAAKSQVISNAKNTVQGFKRFHGRAFSDPFVEAEKSNLAYDIVQLPTGLTGIKVTYMEEERNFTTEQVTAMLLSKLKETAESVLKKPVVDCVVSVPCFYTDAERRSVMDATQIAGLNCLRLMNETTAVALAYGIYKQDLPALEEKPRNVVFVDMGHSAYQVSVCAFNRGKLKVLATAFDTTLGGRKFDEVLVNHFCEEFGKKYKLDIKSKIRALLRLSQECEKLKKLMSANASDLPLSIECFMNDVDVSGTMNRGKFLEMCNDLLARVEPPLRSVLEQTKLKKEDIYAVEIVGGATRIPAVKEKISKFFGKELSTTLNADEAVTRGCALQCAILSPAFKVREFSITDVVPYPISLRWNSPAEEGSSDCEVFSKNHAAPFSKVLTFYRKEPFTLEAYYSSPQDLPYPDPAIAQFSVQKVTPQSDGSSSKVKVKVRVNVHGIFSVSSASLVEVHKSEENEEPMETDQNAKEEEKMQVDQEEPHVEEQQQQTPAENKAESEEMETSQAGSKDKKMDQPPQAKKAKVKTSTVDLPIENQLLWQIDREMLNLYIENEGKMIMQDKLEKERNDAKNAVEEYVYEMRDKLSGEYEKFVSEDDRNSFTLKLEDTENWLYEDGEDQPKQVYVDKLAELKNLGQPIKIRFQESEERPKLFEELGKQIQQYMKIISSFKNKEDQYDHLDAADMTKVEKSTNEAMEWMNNKLNLQNKQSLTMDPVVKSKEIEAKIKELTSTCSPIISKPKPKVEPPKEEQKNAEQNGPVDGQGDNPGPQAAEQGTDTAVPSDSDKKLPEMDID [HSPA4] | 0.198 | 51.3 | 51.1 | -0.0794 | 0.436 | 1.85 |
| MSWAARPPFLPQRHAAGQCGPVGVRKEMHCGVASRWRRRRPWLDPAAAAAAAVAGGEQQTPEPEPGEAGRDGMGDSGRDSRSPDSSSPNPLPQGVPPPSPPGPPLPPSTAPSLGGSGAPPPPPMPPPPLGSPFPVISSSMGSPGLPPPAPPGFSGPVSSPQINSTVSLPGGGSGPPEDVKPPVLGVRGLHCPPPPGGPGAGKRLCAICGDRSSGKHYGVYSCEGCKGFFKRTIRKDLTYSCRDNKDCTVDKRQRNRCQYCRYQKCLATGMKREAVQEERQRGKDKDGDGEGAGGAPEEMPVDRILEAELAVEQKSDQGVEGPGGTGGSGSSPNDPVTNICQAADKQLFTLVEWAKRIPHFSSLPLDDQVILLRAGWNELLIASFSHRSIDVRDGILLATGLHVHRNSAHSAGVGAIFDRVLTELVSKMRDMRMDKTELGCLRAIILFNPDAKGLSNPSEVEVLREKVYASLETYCKQKYPEQQGRFAKLLLRLPALRSIGLKCLEHLFFFKLIGDTPIDTFLMEMLEAPHQLA [RXRB] | 0.264 | 47.6 | 49.1 | -0.14 | 0.348 | 0.163 |
| MSWGTELWDQFDNLEKHTQWGIDILEKYIKFVKERTEIELSYAKQLRNLSKKYQPKKNSKEEEEYKYTSCKAFISNLNEMNDYAGQHEVISENMASQIIVDLARYVQELKQERKSNFHDGRKAQQHIETCWKQLESSKRRFERDCKEADRAQQYFEKMDADINVTKADVEKARQQAQIRHQMAEDSKADYSSILQKFNHEQHEYYHTHIPNIFQKIQEMEERRIVRMGESMKTYAEVDRQVIPIIGKCLDGIVKAAESIDQKNDSQLVIEAYKSGFEPPGDIEFEDYTQPMKRTVSDNSLSNSRGEGKPDLKFGGKSKGKLWPFIKKNKLMSLLTSPHQPPPPPPASASPSAVPNGPQSPKQQKEPLSHRFNEFMTSKPKIHCFRSLKRGLSLKLGATPEDFSNLPPEQRRKKLQQKVDELNKEIQKEMDQRDAITKMKDVYLKNPQMGDPASLDHKLAEVSQNIEKLRVETQKFEAWLAEVEGRLPARSEQARRQSGLYDSQNPPTVNNCAQDRESPDGSYTEEQSQESEMKVLATDFDDEFDDEEPLPAIGTCKALYTFEGQNEGTISVVEGETLYVIEEDKGDGWTRIRRNEDEEGYVPTSYVEVCLDKNAKDS [FNBP1] | 0.298 | 49.7 | 49.4 | -0.129 | 0.62 | 0.929 |
